Test results from doi:10.1101/2024.06.20.599739 (2024).

Columns and labels:
Test in all cases: SPR
[1] = molecular target: EvoBind2 linear design, adversarial selection, length 11
[2] = molecular target: linear 12 ()
[3] = molecular target: linear 19 ()
[4] = molecular target: linear 11 ()
[5] = molecular target: linear 15 ()

B1: MBP-8xHis-1SCC (semi-synthetic Ribonuclease, PDB ID 1SSC) (enzyme)
chain: KETAAAKFERQHMDSSTSAASSSNYCNQMMKSRNLTKDRCKPVNTFVHESLADVQAVCSQKNVACKNGQTNCYQSYSTMSITDCRETGSSKYPNCAYKTTQANKHIIVACEG
- Kd [1]: 1.21 µM
- Kd [2]: 0.728 µM
- Kd [3]: 7.18 µM
- Kd [4]: 7.54 µM
- Kd [5]: 4.34 µM
